Data published in paper PMC6423718.

Target: bZIP domain of chicken CREB3 (chCREB3), Residues 206-280, His-tagged (chicken)
Assay: crystal structure; DNA-free form; sitting-drop vapor diffusion at 4°C, 43% v/v MPD, 100 mM tri-sodium citrate pH 5.6, 10 mM magnesium chloride; molecular replacement; 3.95 Å

stoichiometry N: 2
Substance: bZIP domain of chicken CREB3 (chCREB3), Residues 206-280, His-tagged (domain or fragment)
